Data on 17 sequences can be found in a protein production outcome set (Wang et al. 2014).

The nature of the data set: label from the status in PepcDB records.

For “MKETYYFAYGSNMNLDQMAYRCPAASVVEPVHLEGYRLTFCGRGKGSGVATILPEEGSRVEGVLWKITPECEKSLDFYEGYPHLYGKEPVLVQGKDGMKREVMAYTMNAPYKDQPAIPSDLYFMGIVEGCHQNGISSRSVTDALKRVREEVGRQKPSQKKTEVSR”, the protein production entry is given as “failed”.
The value for “MKFDNKAPIYIQIMDKIKIDIINGTLKPGDKLPSVREMAVKFKVNPNTLQRVYQELERENITYTQRGTGSFVREDSDMIINLKKEMASEVIENFIENIKEFGFGNKDILKIVEDKLNEEEK” was “not failed”; that for “MKFDVIIIGSGLAGLTAGIRLAEAGKSCAIISNGQSALHFSSGSLDLLTHLPDGTPVSHPKQALSTLAQQAPEHPYSRIGEANVTQLIEQAQTLLSTTRNLDYKGNGDENHYRITPVGRSRMSWMSPQRVPTYSVNQPFPWKKIAVVGIEGFLDFQPQFASSTLNEQGIEAIPYHIHLPLLDRLRDNPSEFRAINIARYLDKPENTQALAEELIKHIDNSVEAIVLPACIGLDEEAPVNLLQECVGKPICLLPTLPPSLLGIRLHQALKLRFQQAGGLIMPGDRAEEADLVGNKVVGIHTRNHTDIPIRSEHVVLATGSFFNNGLIAEFDRIYEPLMELDLLESLPRNEWTQVNVFAKQPYMRFGVNTDSQLRPLKYGEALDNVYAVGALLGGFDPLNEGCGAGVSMISALYAAQQILQSDKSQHTTSAAVEAVL” was “not failed”; that for “MKFEAIAVEKIPLIHEGDNLPSIICEKIGLQDRDIMIIASTIVAKAEGEIFRLEDITPGEEALEIAARTGKDPRFIQAVLSKSREVFVETPFMLVTTLAGHTCVNAGIDESNIENGFLLYPPENPDASALKIGKELEKLSGKKLSIIITDTNGRAFKIGQTGVAIGIYNIKPVKRWIGEKDLFGKVLEITEQAIADELAGAANLLMGEGAGGIPVVIIRGLDYYCEGDTSIKESYRPENMDVIKQGLRCLRNKK” was “failed”.
For the sequence “MKFEGIYTPAITPLSADGSIDTQAFAEVLEFLVESKVHGIVIGGSTGEYYAHTAEERLALAAHASEVIAGRLPLVVGTGAIRTEDSLAYAEAARAIGADAILVGSPPYALPTSREIAEHVLAVDRAAGLPIMLYNYPARMGVEMDEAFFAAVAGCRNIVAIKESSGSTAQLHRLACRHPRIALSCGWDDQALEFFAWGARSWVCAGSNFIPGEHLALYQACVVENDFAKGRRIMAAMMPLMDFLESGHFVQSIKHGCELAGLRAGGVRAPLKALDEAGKAALAEIVARLKGEVAR”, the protein production entry is on record as “failed”.
In the case of “MKFGRKCRIIVFISLVLFTFPVFSQDKNFTDKPSSSDKRVASEEFRRGVQAYYRGTFNEAILLFEKALSYLPDESLILDWLGKAYYSSGVEGAALTQWELAEAAGYGGMLLKNKIEILKESRSLTPYSSDNIKYVENSSFSSKNGTVELFRQPLSIAAVSDGSFWMTAYGSNELLHFNVNGIILDRTKGPIQGFDRPFDVIALSDGNLLVSEFAADRISLLDKNGSFIKSFGTRGRGNGEFIGPQFLAEDEYGNIYVCDFGNARIVVFSSAGEPLFTFGKKSGLFGGFTAPAGIAVVDGLVYIADAIKGAVYTFDTAGNFVQSLLPEGTLKQIESLREWNGNLVASAGNKAYLIDIAFSTVSELTSLGNVPTKITAAVPDVNGSLLLIDHKNQTVEITSRINELAGGLFVLIKKVYSDKFPEVLVEVSVQNRDGKQIVGLTQDNFIITEGNRPVADYSLTGSSYLNKTCDIAVIVERSPNSLKEKALIEAALKEIAEAMQGRGKISLISASSIPALEGKFSPADLITLPNRIKTPASSDWKLDLALRLAVGELINAEQKRAVLFLNFSDPNSDNFKQYNLNDLASYMKNNNIRFYPISLKKGAPASEMSYLAKKTGGKTSYIYAERGLKPLIDDIIEKPLGMYQLKYTSTMSTDFGRSFLPVEVEVQLLERSGRDEIGYFAPLE”, the protein production entry is given as “failed”.
The value for “MKFLELNKKRHATKHFTDKLVDPKDVRTAIEIATLAPSAHNSQPWKFVVVREKNAELAKLAYGSNFEQVSSAPVTIALFTDTDLAKRARKIARVGGANNFSEEQLQYFMKNLPAEFARYSEQQVSDYLALNAGLVAMNLVLALTDQGIGSNIILGFDKSKVNEVLEIEDRFRPELLITVGYTDEKLEPSYRLPVDEIIEKR” was “not failed”.
For the sequence “MKFLVENLNGSSFELEVDYRDTLLVVKQKIERSQHIPVSKQTLIVDGIVILREDLTVEQCQIVPTSDIQLEVSS”, the protein production result is on record as “not failed”.
The value for “MKFRGNFVCQPRAGPAESRPTRPFTPRPSATGSLFMSNQHFVSPDLIRQGFSRAMSDMYREEVPLYGALMELVAEVNAQVLERQPALARHLQSSGELQRLDLERHGAIRVGSAAELATLARLFAVMGMQPVGYYDLTPAGVPVHSTAFRAVHEAALQVSPFRVFTSLLRLELIDNPELRSFAEQVLARRQIFTPQVLELIQQAEAAGGLDAEDAERFIRQALETFRWHHHATVTAAQYASLSAQHRLIADVVAFKGPHINHLTPRTLDIDEVQRLMPARGITPKAVIEGPPRRECPILLRQTSFKALEESVAFTDQAQSQGSHSARFGEIEQRGAALTPKGRELYDRLLNAARDALGDFPNEANAQRYNQLMQEHFREFPDSHPAMREQGLAYFRYFVSETGLAARNQPQRPTTLAALLAAGHLSAEPLVYEDFLPVSAAGIFQSNLGDDSQSHYAGQSNRQAFEAALGRPTLDELQLYAQTQQRSLEHCAATLGLPALLEHHHHHH” was “failed”; that for “MKFTKNQFIWLVVLFFSCFLIYTYWETVVSICNKIFVASQPFLFGAGIAFVVNILMSFYEKILIKFIPFGFITKIKRPVSLLLAFATIGLIFTWVVFTVLPDLIDSINTLISQDRSAINNLINWLLKNKSLQKIIQDLGGVTQVRELINSYSAQLLQQIMNGLTNFLTSLTSLPSTLINLFISIVFSCYVLVGKEKLGSQVNRLVDVYLGRYGKTFHYVVAILNNRFHNFFVYQSIEACILGTLCYIGMRIFNFPYAATISILIGFSAMIPVLGAYIGVTIGTILIMTHSVTLALLFVAYVVILQQFEGNLIYPYVVGGSTGLPVVWVILAITIGSALGGILGMLVSVPVAATLYQIVKDNVVTREKAKAVASLENSD” was “not failed”; that for “MKGILFAVFAGIFITLQGTFNAKLSSHIGIWSTSIITHLIGFIIATTVFLLKKEEKVTDLKSVKKIYLVAGAFGGFIICAETMAIYSLGVTLTAGTLMAAQLLTATVIEMKGLFHIKKIQMERYHIVGTIVMIIGIVVFNM” was “failed”.
Consider “MKGLRRLVLDVLKPHEPKTIVFALKLSELENVDGVNIHLSEIDQATENIKITILGNNLDYEQIKGVIEDLGGVIHSVDEVVAGKIIVESVKTEQDLEHHHHHH”, for which the protein production result is recorded as “failed”.
The value for “MKGNCLLKEYQVTMSDDAKADLLSIYHYVRDELCAPQAADDLLERLSQGMLSLSIFPERCAIIEDLIGKGYTFRQLIVKKYRIVYHVLEDEVIIVAVVYGSRHMNNWLEHHHHHH” was “failed”; that for “MKGNSFGEIISSEDIGLRKGADSSHEIITSIPSGARVNIIDKMSKDWYKVSYKDFTGYLQAKDIRVLGLEHHHHHH” was “failed”.
“MKGTFTNLLVLLLIALVCANVGARKLISEDTQFKDEKSFLGGGGSGDGLGLGLGGGAGLGGLGIGAGIGAGAGLGLGGGGGGLGGGGGGLLGGGGFGGGAGGGLGGLP”: the protein production result is given as “failed”.
“MKHFKLPDLGEGLQEAEIVEWHVKAGDSVRADQRLVSVETAKALVDIPAPYDGVVGKLFGAEGDILHVGEPLVGFEGEEADAGTVVGRLEGGGSALEDRFFIGAAPSTREHLAPRATPAVRQFARQQGVELAGLSGSGPDGLITRADVEAAAQGTRERFGGERLRGVRRSMALNMARSHAEVVPVTIYGDADLHRWKTARDPLIRLAQALAEACRAEPTLNAWFDGASLSLKLHERLDLGIAVDTPDGLFVPVLRDVGARSAEDLRAGMRRLREDVQARSIPPAEMLGATLTLSNFGTLFGRYANPVVVPPQVAILGAGGIRDEVVAWRGEMAIHPILPLSLSFDHRAATGGEAARFLKVLVNALEQPD”: the protein production entry is on record as “failed”.
Take “MKHFLTLRDFSKEEILSLVNHASELKKEPKKLLQDKTLAMIFEKNSTRTRMAFELAITELGGKALFLSSNDLQLSRGEPVKDTARVIGAMVDFVMMRVNKHETLLEFARYSKAPVINALSELYHPTQVLGDLFTIKEWNKMQNGIAKVAFIGDSNNMCNSWLITAAILGFEISIAMPKNYKISPEIWEFAMKQALISGAKISLGYDKFEALKDKDVVITDTWVSMGEENEKERKIKEFEGFMIDEKAMSVANKDAILLHCLPAYRGYEVSEEIFEKHADVIFEEARNRLYVVKALLCFLDNQRGRE”: the protein production result is “not failed”.
